Laboratory results: US20110239319, “Use of Endonucleases for Inserting Transgenes Into Safe Harbor Loci” (published 2011)
Numbering of substitutions follows the chain as printed.

Columns and labels:
Assay in all cases: cell_activity; endogenous locus, 293H
[1] = target: T1, QCSH61-H01b (QC-SH6-H01_7E) (artificial)
T1 chain: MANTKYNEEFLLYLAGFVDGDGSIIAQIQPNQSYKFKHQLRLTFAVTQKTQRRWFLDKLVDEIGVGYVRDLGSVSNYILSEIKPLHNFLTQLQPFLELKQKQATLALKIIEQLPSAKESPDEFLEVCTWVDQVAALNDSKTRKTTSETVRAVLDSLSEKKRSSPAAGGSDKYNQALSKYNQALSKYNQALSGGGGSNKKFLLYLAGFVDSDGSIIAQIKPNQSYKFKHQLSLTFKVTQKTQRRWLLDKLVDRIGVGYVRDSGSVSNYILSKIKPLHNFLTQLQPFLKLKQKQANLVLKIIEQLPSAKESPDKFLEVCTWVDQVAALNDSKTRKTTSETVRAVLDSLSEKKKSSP
Procedure: (§1) Human embryonic kidney 293H cells (Invitrogen) were plated at a density of 1×10⁶ cells per 10 cm dish in complete medium (DMEM supplemented with 2 mM L-glutamine, penicillin (100 UI/ml), streptomycin (100 μg/ml), amphotericin B (Fongizone) (0.25 μg/ml) (Invitrogen-Life Science) and 10% FBS). The next day, cells were transfected with 3 μg of single-chain meganuclease expression vector using Lipofectamine 2000 transfection reagent (Invitrogen) according to the supplier's protocol. After 2 to 6 days of incubation at 37° C., cells were trypsinized and genomic DNA extraction was performed with the DNeasy blood and tissue kit (Qiagen) according to the supplier's protocol.
(§2) Human embryonic kidney 293H cells were transfected with a plasmid expressing a single-chain safe harbor meganuclease. After 2 to 6 days of incubation at 37° C., genomic DNA was isolated and PCR was used to amplify the genomic sequence surrounding the meganuclease target site. Sequences were then analyzed for the presence of insertions or deletions events (InDel) in the cleavage site of each safe harbor target.

[2] = target: T2, SCOH-SH6-b11-G2.2_BQY (artificial)
T2 chain: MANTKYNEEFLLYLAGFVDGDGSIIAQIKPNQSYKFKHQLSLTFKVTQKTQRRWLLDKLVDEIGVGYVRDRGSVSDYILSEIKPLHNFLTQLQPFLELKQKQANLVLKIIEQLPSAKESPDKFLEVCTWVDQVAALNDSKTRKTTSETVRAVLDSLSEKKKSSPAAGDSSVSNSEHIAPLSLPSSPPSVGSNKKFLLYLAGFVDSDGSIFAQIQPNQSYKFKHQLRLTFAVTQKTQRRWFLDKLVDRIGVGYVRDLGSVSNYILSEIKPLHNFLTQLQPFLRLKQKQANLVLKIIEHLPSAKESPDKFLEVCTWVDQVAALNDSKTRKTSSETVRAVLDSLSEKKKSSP
Procedure: as §1, §2

[3] = target: T3, QCSH61-H01d (QC-SH6-H01_V2_7E_70R75D) (artificial)
T3 chain: T1 chain with S261R, N266D
Procedure: as §1, §2

[4] = target: T4, SCOH-SH6-b12-G2_BQY (artificial)
T4 chain: T2 chain with D70G, R71S, D76N
Procedure: as §1, §2

[5] = target: T5, QCSH61-H01a (SCOH-QCSH6-H01) (artificial)
T5 chain: T1 chain with E8R
Procedure: as §1, §2

[6] = target: T6, SCOH-SH8 (artificial)
T6 chain: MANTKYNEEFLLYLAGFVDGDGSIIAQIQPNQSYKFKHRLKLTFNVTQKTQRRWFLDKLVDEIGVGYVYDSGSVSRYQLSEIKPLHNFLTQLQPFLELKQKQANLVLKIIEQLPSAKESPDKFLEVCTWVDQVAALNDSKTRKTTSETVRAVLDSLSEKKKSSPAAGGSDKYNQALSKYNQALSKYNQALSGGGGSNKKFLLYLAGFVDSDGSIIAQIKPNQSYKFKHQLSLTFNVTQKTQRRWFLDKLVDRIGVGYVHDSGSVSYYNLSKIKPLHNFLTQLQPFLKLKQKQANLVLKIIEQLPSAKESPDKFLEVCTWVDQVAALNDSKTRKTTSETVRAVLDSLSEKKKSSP
Procedure: as §1, §2

[7] = target: T7, SCOH-SH13 (artificial)
T7 chain: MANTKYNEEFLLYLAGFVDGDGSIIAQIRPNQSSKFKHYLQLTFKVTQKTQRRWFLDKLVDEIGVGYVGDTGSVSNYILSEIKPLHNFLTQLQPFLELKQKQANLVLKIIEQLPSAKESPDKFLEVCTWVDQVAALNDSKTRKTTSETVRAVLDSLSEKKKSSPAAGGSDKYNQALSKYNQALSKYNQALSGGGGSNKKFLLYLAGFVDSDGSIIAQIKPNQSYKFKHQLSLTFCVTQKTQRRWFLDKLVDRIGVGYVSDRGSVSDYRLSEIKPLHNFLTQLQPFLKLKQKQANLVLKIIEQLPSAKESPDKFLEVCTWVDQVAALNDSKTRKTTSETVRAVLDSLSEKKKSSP
Procedure: as §1, §2

[8] = target: T8, SCOH-SH18-b11-C.2 (artificial)
T8 chain: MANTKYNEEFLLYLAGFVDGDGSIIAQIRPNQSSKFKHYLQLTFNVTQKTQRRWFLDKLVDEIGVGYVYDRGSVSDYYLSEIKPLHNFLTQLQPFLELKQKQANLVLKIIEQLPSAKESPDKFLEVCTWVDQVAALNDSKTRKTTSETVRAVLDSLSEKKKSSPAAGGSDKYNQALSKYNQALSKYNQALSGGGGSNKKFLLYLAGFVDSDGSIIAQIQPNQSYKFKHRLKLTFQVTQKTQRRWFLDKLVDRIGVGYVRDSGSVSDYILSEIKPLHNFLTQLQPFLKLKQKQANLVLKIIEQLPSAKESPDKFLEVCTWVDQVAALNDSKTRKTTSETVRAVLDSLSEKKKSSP
Procedure: as §1, §2

B1: SH6 target (dsDNA)
DNA 1: TTAATACCCCGTACCTAATATTGC
DNA 2: GCAATATTAGGTACGGGGTATTAA
activity [1]: 1.5 % InDels
activity [2]: 3 % InDels
activity [3]: 3.5 % InDels
activity [4]: 1 % InDels
activity [5]: 0.6 % InDels

B2: SH8 target (dsDNA)
DNA 1: ACAATCTGAGGTAAGTAATACTGA
DNA 2: TCAGTATTACTTACCTCAGATTGT
activity [6]: 0.5 % InDels

B3: SH13 target (dsDNA)
DNA 1: ATTACACTCTTTAAGTGATTTTAA
DNA 2: TTAAAATCACTTAAAGAGTGTAAT
activity [7]: 1.5 % InDels

B4: SH18 target (dsDNA)
DNA 1: CTTACCCCACGTACCACAGACTGT
DNA 2: ACAGTCTGTGGTACGTGGGGTAAG
activity [8]: 1.2 % InDels
